# Assay results as given in PMC5290278 (Nature Communications, 2017).
# Biological target: T1, GST-NPHP4-C2^650-839 (human, UniProt O75161 650-839)
# T1 construct: central C2 domain of NPHP4, residues 650-839; also called GST-N4-C2^2650-839 (as printed in the legend); GST fused to the central C2 domain of NPHP4; source: bacterially purified
# T1 sequence (looked up): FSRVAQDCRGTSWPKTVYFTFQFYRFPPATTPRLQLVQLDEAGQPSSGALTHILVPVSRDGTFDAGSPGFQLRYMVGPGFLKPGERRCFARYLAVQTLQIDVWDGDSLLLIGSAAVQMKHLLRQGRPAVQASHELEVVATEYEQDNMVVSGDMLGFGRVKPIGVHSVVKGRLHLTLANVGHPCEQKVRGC
# Assay: pull-down; GFP-KIF13B-C2^861-1,000 held on anti-GFP immunocomplexes, washed two times in high salt buffer (600 mM NaCl, 10 mM Tris-HCl, 0.1% NP-40); bacterially purified GST-NPHP4-C2^650-839 (500 ng/µl) added in modified EBC buffer (140 mM NaCl, 10 mM Tris-HCl, 5 mM EDTA, 0.5% NP-40); standard GFP IP
# Details: both partners purified
binder,measurement,value
"GFP-KIF13B-C2^861-1,000 (domain or fragment, human, UniProt Q9NQT8 861-1000, looked up, made by PCR from the GFP-KIF13B plasmid and cloned into pEGFP-C1; also called KIF13B RPGRIP1N-C2 type domain; source: HEK293T, transfected, in lysate; also immunoisolated on anti-GFP beads with high salt washes) KETQENKLVCMVKILQATGLPQHLSHFVFCKYSFWDQQEPVIVAPEVDTSSSSVSKEPHCMVVFDHCNEFSVNITEDFIEHLSEGALAIEVYGHKINDPRKNPALWDLGIIQAKTRSLRDRWSEVTRKLEFWVQILEQNE",binding result,binds
